The values below come from article PMC11969024 (2025).

The chains are these.
B1: peptide HD2 (from tick evasin EVA4) / CCL18 (biotinylated, synthetic) (parent complex)
chain 1: EEDDYTAYAPLTCYFT
chain 2: AQVGTNKELCCLVYTSWQIPQKFIVDYSETSPQCPKPGVILLTKRGRQICADPNKKWVQKYISDLKLNA
B2: peptide HD2 (from tick evasin EVA4) / CCL1 (biotinylated, synthetic) (parent complex)
chain 1: EEDDYTAYAPLTCYFT
chain 2: KSMQVPFSRCCFSFAEQEIPLRAILCYRNTSSICSNEGLIFKLKRGKEACALDTVGWVQRHRKMLRHCPSKRK

In one assay the parent is B1.
Consider chain 1 EEDDYTAYAFLTCYFT, for which the enrichment was -9.61 log2 (difference from the parental peptide).

Turning to chain 1 EEDDYTAYAVLTCYFT, the enrichment is -8.99 log2 (difference from the parental peptide). The same measure, in the same setting: the same measure for chain 1 EEDDYTAYADLTCYFT: -2.21 log2 (difference from the parental peptide); for chain 1 EEDDYTAYALLTCYFT: -9.7 log2 (difference from the parental peptide).

As for chain 1 EEMDYTAYAPLTCYFT, the enrichment is -1.4 log2 (difference from the parental peptide). On the same count and under the same terms, for chain 1 EEIDYTAYAPLTCYFT the value was -2.12 log2 (difference from the parental peptide); for chain 1 EEEDYTAYAPLTCYFT, 0.978 log2 (difference from the parental peptide); for chain 1 EEWDYTAYAPLTCYFT, -1.95 log2 (difference from the parental peptide).

Take chain 1 EEGDYTAYAPLTCYFT: the enrichment was -0.0296 log2 (difference from the parental peptide). Turning to chain 1 EERDYTAYAPLTCYFT, the enrichment is -3.26 log2 (difference from the parental peptide). In the case of chain 1 EELDYTAYAPLTCYFT, the enrichment was -2.02 log2 (difference from the parental peptide). Still for that read-out and setting: for chain 1 EEADYTAYAPLTCYFT the value was -0.703 log2 (difference from the parental peptide); for chain 1 EEDDYTMYAPLTCYFT, 2.23 log2 (difference from the parental peptide). As for chain 1 EEDDYTTYAPLTCYFT, the enrichment is -0.452 log2 (difference from the parental peptide). Same read-out and setting: for chain 1 EEDDYTLYAPLTCYFT the value was 0.189 log2 (difference from the parental peptide). The same measure, in the same setting: the same measure for chain 1 EEDDYTYYAPLTCYFT: -0.717 log2 (difference from the parental peptide); for chain 1 EEDDYTIYAPLTCYFT: -0.489 log2 (difference from the parental peptide). For the variant chain 1 EEDDYTQYAPLTCYFT, the enrichment was 2.05 log2 (difference from the parental peptide). Same read-out and setting: for chain 1 EEDDYTNYAPLTCYFT the value was -0.0931 log2 (difference from the parental peptide); for chain 1 EEDDYTAYAPLTCYFH, -0.148 log2 (difference from the parental peptide); for chain 1 EEDDYTAYAPLTCYFF, -0.482 log2 (difference from the parental peptide). The same measure, in the same setting: the same measure for chain 1 EEDDYTAYAPLTCYFK: -0.439 log2 (difference from the parental peptide). The same measure, in the same setting: for chain 1 EEDDYTAYAPLTCYFA the value was 1.23 log2 (difference from the parental peptide).

For the variant chain 1 EEDDYTAYAPLTCYFL, the enrichment is 0.179 log2 (difference from the parental peptide).

Regarding chain 1 EEDDYTAYAPLTCYFN, the enrichment is 0.14 log2 (difference from the parental peptide). Same read-out and setting: for chain 1 EEDDYTAYAPLTCYFG the value was 1.32 log2 (difference from the parental peptide); for chain 1 EEDDYTAYAPLTCYFQ, 1.05 log2 (difference from the parental peptide); for chain 1 EEDDYTAYAPLTCVFT, -1.51 log2 (difference from the parental peptide).

As to chain 1 EEDDYTAYAPLTCHFT, the enrichment was -1.38 log2 (difference from the parental peptide).

Regarding chain 1 EEDDYTAYAPLTCCFT, the enrichment was -8.51 log2 (difference from the parental peptide). The same measure, in the same setting: the same measure for chain 1 EEDDYTAYAPLTCGFT: -8.38 log2 (difference from the parental peptide). Take chain 1 EEDDYTAYAPLTCWFT: the enrichment is -1.23 log2 (difference from the parental peptide).

As for chain 1 EEDDYTAYAPLTCSFT, the enrichment was -3.46 log2 (difference from the parental peptide).

On to chain 1 EEDDYTAYAPLTCEFT, for which the enrichment was -4.21 log2 (difference from the parental peptide). Same read-out and setting: for chain 1 EEDDYTAYAPLTCMFT the value was -2.78 log2 (difference from the parental peptide). Same read-out and setting: the same measure for chain 1 EEDDYTAYAPLTCFFT: 0.0351 log2 (difference from the parental peptide).

On to chain 1 EEDDYTAYAPLTQYFT, for which the enrichment was -9.57 log2 (difference from the parental peptide). Still for that read-out and setting: the same measure for chain 1 EEDDYTAYAPLTNYFT: -8.4 log2 (difference from the parental peptide); for chain 1 EEDDYTAYAPLTRYFT: -9.16 log2 (difference from the parental peptide); for chain 1 EEDDYTAYAPLTIYFT: -5.57 log2 (difference from the parental peptide). In the case of chain 1 EEDDYTAYAPLTTYFT, the enrichment was -9.42 log2 (difference from the parental peptide). In the case of chain 1 EEDDYTAYAPLTCYPT, the enrichment is -0.512 log2 (difference from the parental peptide).

Regarding chain 1 EEDDYTAYAPLTCYAT, the enrichment is 0.456 log2 (difference from the parental peptide). Still for that read-out and setting: the same measure for chain 1 EEDDYTAYAPLTCYGT: -4.09 log2 (difference from the parental peptide). On to chain 1 EEDDYTAYAPLTCYQT, for which the enrichment is -0.376 log2 (difference from the parental peptide).

On to chain 1 EEDDYTAPAPLTCYFT, for which the enrichment is -3.81 log2 (difference from the parental peptide). Same read-out and setting: for chain 1 EEDDYTAQAPLTCYFT the value was -6.56 log2 (difference from the parental peptide); for chain 1 EEDDYTAVAPLTCYFT, -2.87 log2 (difference from the parental peptide); for chain 1 EEDDYTAFAPLTCYFT, 2.01 log2 (difference from the parental peptide). Same read-out and setting: the same measure for chain 1 EEDDYTADAPLTCYFT: -6.74 log2 (difference from the parental peptide); for chain 1 EEDDYTAGAPLTCYFT: -6.32 log2 (difference from the parental peptide); for chain 1 EEDDYTASAPLTCYFT: -2.05 log2 (difference from the parental peptide). On the same count and under the same terms, for chain 1 EEDDYTAYAPNTCYFT the value was -3.89 log2 (difference from the parental peptide). Regarding chain 1 EEDDYTAYAPHTCYFT, the enrichment was 0.897 log2 (difference from the parental peptide).

Consider chain 1 EEDDYTAYAPMTCYFT, for which the enrichment was 2.39 log2 (difference from the parental peptide).

Regarding chain 1 EEDDYTAYAPWTCYFT, the enrichment was 0.64 log2 (difference from the parental peptide). Still for that read-out and setting: for chain 1 EEDDYTAYAPRTCYFT the value was -0.679 log2 (difference from the parental peptide).

Turning to chain 1 EEDDYTAYAPKTCYFT, the enrichment was -1.3 log2 (difference from the parental peptide). The same measure, in the same setting: for chain 1 EEDDYTAYAPCTCYFT the value was 1.6 log2 (difference from the parental peptide). The same measure, in the same setting: the same measure for chain 1 EEDDYTAYAPSTCYFT: -0.148 log2 (difference from the parental peptide); for chain 1 EEDDYIAYAPLTCYFT: -4.4 log2 (difference from the parental peptide). On the same count and under the same terms, for chain 1 EEDDYSAYAPLTCYFT the value was 2.9 log2 (difference from the parental peptide). Turning to chain 1 EEDDYVAYAPLTCYFT, the enrichment was -3.07 log2 (difference from the parental peptide). On the same count and under the same terms, for chain 1 EEDDYWAYAPLTCYFT the value was 0.931 log2 (difference from the parental peptide); for chain 1 EEDDYEAYAPLTCYFT, 2.48 log2 (difference from the parental peptide). Same read-out and setting: for chain 1 EEDDYFAYAPLTCYFT the value was -2.21 log2 (difference from the parental peptide); for chain 1 EEDQYTAYAPLTCYFT, -1.98 log2 (difference from the parental peptide); for chain 1 EEDSYTAYAPLTCYFT, -2.31 log2 (difference from the parental peptide). The same measure, in the same setting: for chain 1 EEDVYTAYAPLTCYFT the value was -3.19 log2 (difference from the parental peptide). In the case of chain 1 EEDKYTAYAPLTCYFT, the enrichment is -2.75 log2 (difference from the parental peptide). Still for that read-out and setting: the same measure for chain 1 EEDGYTAYAPLTCYFT: -2.83 log2 (difference from the parental peptide); for chain 1 EEDRYTAYAPLTCYFT: -2.64 log2 (difference from the parental peptide). Still for that read-out and setting: the same measure for chain 1 EEDIYTAYAPLTCYFT: -2.18 log2 (difference from the parental peptide); for chain 1 EEDPYTAYAPLTCYFT: -1.34 log2 (difference from the parental peptide). Same read-out and setting: for chain 1 EVDDYTAYAPLTCYFT the value was -1.58 log2 (difference from the parental peptide); for chain 1 EKDDYTAYAPLTCYFT, -3.34 log2 (difference from the parental peptide). As to chain 1 EDDDYTAYAPLTCYFT, the enrichment is -0.0115 log2 (difference from the parental peptide). The same measure, in the same setting: for chain 1 ENDDYTAYAPLTCYFT the value was -3.02 log2 (difference from the parental peptide); for chain 1 ESDDYTAYAPLTCYFT, -2.49 log2 (difference from the parental peptide); for chain 1 EEDDYTAYQPLTCYFT, -0.732 log2 (difference from the parental peptide). Still for that read-out and setting: for chain 1 EEDDYTAYMPLTCYFT the value was -4.18 log2 (difference from the parental peptide); for chain 1 EEDDYTAYKPLTCYFT, -2.18 log2 (difference from the parental peptide); for chain 1 EEDDYTAYLPLTCYFT, -7.81 log2 (difference from the parental peptide). On the same count and under the same terms, for chain 1 EEDDYTAYIPLTCYFT the value was -10.2 log2 (difference from the parental peptide); for chain 1 EEDDYTAYNPLTCYFT, -5.05 log2 (difference from the parental peptide).

As for chain 1 EEDDYTAYFPLTCYFT, the enrichment is -8.36 log2 (difference from the parental peptide). The same measure, in the same setting: for chain 1 EEDDNTAYAPLTCYFT the value was -4 log2 (difference from the parental peptide); for chain 1 EEDDVTAYAPLTCYFT, -3.13 log2 (difference from the parental peptide). Take chain 1 EEDDQTAYAPLTCYFT: the enrichment is -2.39 log2 (difference from the parental peptide). For chain 1 EEDDITAYAPLTCYFT, the enrichment is -3.26 log2 (difference from the parental peptide). Take chain 1 EEDDATAYAPLTCYFT: the enrichment is -4.1 log2 (difference from the parental peptide). Same read-out and setting: the same measure for chain 1 EEDDDTAYAPLTCYFT: -3.92 log2 (difference from the parental peptide).

Turning to chain 1 EEDDLTAYAPLTCYFT, the enrichment is -0.851 log2 (difference from the parental peptide). Same read-out and setting: for chain 1 EEDDYTAYAPLSCYFT the value was -1.43 log2 (difference from the parental peptide). As to chain 1 EEDDYTAYAPLLCYFT, the enrichment is 0.858 log2 (difference from the parental peptide).

For chain 1 EEDDYTAYAPLACYFT, the enrichment is -0.729 log2 (difference from the parental peptide). Turning to chain 1 EEDDYTAYAPLFCYFT, the enrichment is -0.316 log2 (difference from the parental peptide). Same read-out and setting: for chain 1 EEDDYTAYAPLECYFT the value was -0.867 log2 (difference from the parental peptide); for chain 1 EEDDYTAYAPLNCYFT, -1.81 log2 (difference from the parental peptide); for chain 1 EEDDYTAYAPLCCYFT, -7.25 log2 (difference from the parental peptide). The same measure, in the same setting: the same measure for chain 1 IEDDYTAYAPLTCYFT: -1.17 log2 (difference from the parental peptide); for chain 1 YEDDYTAYAPLTCYFT: -1.67 log2 (difference from the parental peptide). Still for that read-out and setting: for chain 1 REDDYTAYAPLTCYFT the value was -3.04 log2 (difference from the parental peptide). Consider chain 1 PEDDYTAYAPLTCYFT, for which the enrichment was -2.16 log2 (difference from the parental peptide). The same measure, in the same setting: the same measure for chain 1 KEDDYTAYAPLTCYFT: -3.68 log2 (difference from the parental peptide). Same read-out and setting: for chain 1 AEDDYTAYAPLTCYFT the value was -0.823 log2 (difference from the parental peptide). As for chain 1 LEDDYTAYAPLTCYFT, the enrichment was -1.91 log2 (difference from the parental peptide). Still for that read-out and setting: for chain 1 MEDDYTAYAPLTCYFT the value was -0.0267 log2 (difference from the parental peptide).

The variants in a further assay derive from B2.
Consider chain 1 EEDDYTAYAPLQCYFT, for which the enrichment is -2.05 log2 (difference from the parental peptide). On the same count and under the same terms, for chain 1 EEDDYTADAPLTCYFT the value was -6.77 log2 (difference from the parental peptide); for chain 1 ERDDYTAYAPLTCYFT, -4.77 log2 (difference from the parental peptide); for chain 1 EEDDYRAYAPLTCYFT, -1.22 log2 (difference from the parental peptide).
